We go through four molecules from publication PMC5607398, “Neisseria cinerea Expresses a Functional Factor H Binding Protein Which Is Recognized by Immune Responses Elicited by Meningococcal Vaccines” (Infection and Immunity, 2017).

The labels stand for the following.
B2: Neisseria meningitidis V1.1 factor H binding protein (V1.1 fHbp), recombinant (natural protein)
chain: GGVAADIGAGLADALTAPLDHKDKGLQSLTLDQSVRKNEKLKLAAQGAEKTYGNGDSLNTGKLKNDKVSRFDFIRQIEVDGQLITLESGEFQVYKQSHSALTAFQTEQIQDSEHSGKMVAKRQFRIGDIAGEHTSFDKLPEGGRATYRGTAFGSDDAGGKLTYTIDFAAKQGNGKIEHLKSPELNVDLAAADIKPDGKRHAVISGSVLYNQAEKGSYSLGIFGGKAQEVAGSAEVKTVNGIRHIGLAAKQ
notes: source: E. coli BL21(DE3), pET21b, purified (HisTrap, anion exchange)

The target in experiment [1] is full-length human CFH (Sigma) (UniProt P08603). Description: ELISA. To be noted: read off a plot.
In experiment [2] the target is Neisseria cinerea CCUG 346T factor H binding protein (V1.110 fHbp), recombinant (Neisseria cinerea). Briefly: SPR.
In experiment [3] the target is B2. Description: SPR. To be noted: both partners purified.
For experiment [4], the target named is T1, full-length human CFH (Sigma) (human, UniProt P08603 19-1231).
T1 construct: also called full-length CFH; source: bought: Sigma
Briefly: ELISA; plates coated with recombinant fHbp (3 ug/ml); full-length human CFH (Sigma) in 2-fold dilutions from 10 ug/ml; detected with anti-CFH antibody. To be noted: both partners purified.

As to “Neisseria meningitidis V1.1 factor H binding protein (V1.1 fHbp), recombinant (from UniProt Q9JXV4) I311A”, the response in experiment [1] (CFH 1.25 µg/ml (x position estimated), parent: est. 0.35) was 0.073 OD 450nm; in experiment [1] (CFH 2.5 µg/ml, parent: est. 0.40) it was 0.082 OD 450nm; in experiment [1] (CFH 5 μg/ml, parent: est. 0.40) it was 0.082 OD 450nm; in experiment [1] (CFH 5 µg/ml, parent: est. 0.41), 0.11 OD 450nm; in experiment [1] (CFH 10 µg/ml, parent: est. 0.47), 0.19 OD 450nm.
Take “recombinant CFH6–7 (CCP domains 6 and 7 of complement factor H) (from UniProt P08603 321-443) (domain or fragment)”: in experiment [2], the Kd came to 3.5 nM.

B1: recombinant CFH6–7 (CCP domains 6 and 7 of complement factor H) (domain or fragment, human)
chain: TLKPCDYPDIKHGGLYHENMRRPYFPVAVGKYYSYYCDEHFETPSGSYWDHIHCTQDGWSPAVPCLRKCYFPYLENGYNQNYGRKFVQGKSIDVACHPGYALPKAQTTVTCMENGWSPTPRCI
Take B1: the Kd in experiment [3] came to 3 ± 0.5 nM.
Consider B2, for which the binding result in experiment [4] is recorded as “binds”.
